Residue numbers refer to the chain shown, from its start. Names and notes keep the numbering of the source.
T1: EsCas13d, nuclease-dead (Eubacterium siraeum, UniProt B0MS50, R295A;H300A;R849A;H854A)
T1 sequence: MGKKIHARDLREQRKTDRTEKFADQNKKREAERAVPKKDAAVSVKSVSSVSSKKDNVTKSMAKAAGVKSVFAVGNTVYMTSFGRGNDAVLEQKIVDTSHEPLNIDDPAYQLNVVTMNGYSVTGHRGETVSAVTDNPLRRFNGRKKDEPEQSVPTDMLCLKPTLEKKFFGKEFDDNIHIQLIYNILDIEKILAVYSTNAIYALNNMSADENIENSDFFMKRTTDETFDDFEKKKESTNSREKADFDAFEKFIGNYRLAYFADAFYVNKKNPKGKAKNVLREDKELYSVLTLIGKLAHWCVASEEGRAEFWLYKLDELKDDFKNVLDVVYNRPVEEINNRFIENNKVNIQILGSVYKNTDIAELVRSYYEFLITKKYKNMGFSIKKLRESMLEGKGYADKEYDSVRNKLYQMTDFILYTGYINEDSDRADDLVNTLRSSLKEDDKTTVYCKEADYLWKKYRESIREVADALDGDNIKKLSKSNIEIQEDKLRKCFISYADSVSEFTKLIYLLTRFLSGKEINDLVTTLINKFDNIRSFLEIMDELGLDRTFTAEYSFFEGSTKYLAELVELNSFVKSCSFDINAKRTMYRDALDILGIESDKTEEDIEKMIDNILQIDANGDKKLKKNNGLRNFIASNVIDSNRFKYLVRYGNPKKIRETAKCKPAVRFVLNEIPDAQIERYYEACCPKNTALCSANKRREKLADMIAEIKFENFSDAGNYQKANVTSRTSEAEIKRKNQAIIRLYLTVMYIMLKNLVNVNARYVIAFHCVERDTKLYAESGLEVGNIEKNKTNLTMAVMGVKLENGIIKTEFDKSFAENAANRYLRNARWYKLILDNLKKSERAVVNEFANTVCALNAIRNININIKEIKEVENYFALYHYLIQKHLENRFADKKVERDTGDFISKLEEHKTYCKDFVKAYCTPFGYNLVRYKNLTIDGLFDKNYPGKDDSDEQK

B1: target 1 C2U,U8A (mixed)
RNA 1: CACCCGUGCAAAAAUGCAGGGGUCUAAAACUGAGCGGAUAACCUCUCUAUGG
RNA 2: GGGAAUGGAUCCACAUCUACGAAUUCGUACCAUAGAGAGGUUAACCGCUUACCGAGAUCGGAAGAGCACACGU
B2: target 1 insG 3' of 14,insG 3' of 10 (mixed)
RNA 1: B1 RNA 1
RNA 2: GGGAAUGGAUCCACAUCUACGAAUUCGUACCAUAGAGAGGGUUGAUCCGCUCACCGAGAUCGGAAGAGCACACGU
B3: target 1 U10C,G12A (mixed)
RNA 1: B1 RNA 1
RNA 2: B1 RNA 2 with G40A, U42C, A44U, U50C
B4: target 1 C2U,G13A (mixed)
RNA 1: B1 RNA 1
RNA 2: B1 RNA 2 with G39A, A44U
B5: target 1 insG 3' of 20,insC 3' of 15 (mixed)
RNA 1: B1 RNA 1
RNA 2: GGGAAUGGAUCCACAUCUACGAAUUCGUACCAGUAGAGCAGGUUAUCCGCUCACCGAGAUCGGAAGAGCACACGU
B6: target 1 G5C,G13C (mixed)
RNA 1: B1 RNA 1
RNA 2: B1 RNA 2 with G39C, A44U, G47C, U50C
B7: target 1 insG 3' of 14,insA 3' of 5 (mixed)
RNA 1: B1 RNA 1
RNA 2: B2 RNA 2 with G44A, A45U, U46C, C48G, G49A
B8: target 1 G5A,C6G (mixed)
RNA 1: B1 RNA 1
RNA 2: B1 RNA 2 with A44U, C46G, G47A, U50C
B9: target 1 insA 3' of 7,insC 3' of 5 (mixed)
RNA 1: B1 RNA 1
RNA 2: B2 RNA 2 with G41U, U43A, G44U, A45C, U46A, C48G, G49C
B10: target 1 insU 3' of 20 (mixed)
RNA 1: B1 RNA 1
RNA 2: GGGAAUGGAUCCACAUCUACGAAUUCGUACCAUUAGAGAGGUUAUCCGCUCACCGAGAUCGGAAGAGCACACGU
B11: target 1 insU 3' of 21,insU 3' of 2 (mixed)
RNA 1: B1 RNA 1
RNA 2: GGGAAUGGAUCCACAUCUACGAAUUCGUACCUAUAGAGAGGUUAUCCGCUCUACCGAGAUCGGAAGAGCACACGU
B12: target 1 C4A,G5C (mixed)
RNA 1: B1 RNA 1
RNA 2: B1 RNA 2 with A44U, G47C, C48A, U50C
B13: target 1 A9G,U11C (mixed)
RNA 1: B1 RNA 1
RNA 2: B1 RNA 2 with U41C, A43G, A44U, U50C
B14: target 1 G17A,A18G (mixed)
RNA 1: B1 RNA 1
RNA 2: B1 RNA 2 with A34G, G35A, A44U, U50C
B15: target 1 del3,del5 (mixed)
RNA 1: B1 RNA 1
RNA 2: GGGAAUGGAUCCACAUCUACGAAUUCGUACCAUAGAGAGGUUAUCCCCACCGAGAUCGGAAGAGCACACGU
B16: target 1 insU 3' of 6,insA 3' of 2 (mixed)
RNA 1: B1 RNA 1
RNA 2: GGGAAUGGAUCCACAUCUACGAAUUCGUACCAUAGAGAGGUUAUCCUGCUCAACCGAGAUCGGAAGAGCACACGU
B17: target 1 del7,del11 (mixed)
RNA 1: B1 RNA 1
RNA 2: B15 RNA 2 with U42A, A43U, U44C, C45G, C47U
B18: target 1 C7A,A16U (mixed)
RNA 1: B1 RNA 1
RNA 2: B1 RNA 2 with A36U, A44U, C45A, U50C
B19: target 1 complement block 3-13 (mixed)
RNA 1: B1 RNA 1
RNA 2: GGGAAUGGAUCCACAUCUACGAAUUCGUACCAUAGAGACCAAUAGGCGACACCGAGAUCGGAAGAGCACACGU
B20: target 1 insU 3' of 14,insA 3' of 5 (mixed)
RNA 1: B1 RNA 1
RNA 2: B2 RNA 2 with G39U, G44A, A45U, U46C, C48G, G49A
B21: target 1 U3C,A9U (mixed)
RNA 1: B1 RNA 1
RNA 2: B1 RNA 2 with A43U, A44U, U49C, U50C
B22: target 1 insC 3' of 9,insG 3' of 7 (mixed)
RNA 1: B1 RNA 1
RNA 2: B2 RNA 2 with G41U, U43A, G44C, A45U, U46C, C47G
B23: target 1 A16G,G17A (mixed)
RNA 1: B1 RNA 1
RNA 2: B1 RNA 2 with G35A, A36G, A44U, U50C
B24: target 1 insA 3' of 17,insU 3' of 14 (mixed)
RNA 1: B1 RNA 1
RNA 2: B5 RNA 2 with G33U, U34A, A35G, G36A, C39A, A40U
B25: target 1 G13U,A14C (mixed)
RNA 1: B1 RNA 1
RNA 2: B1 RNA 2 with A38C, G39U, A44U, U50C
B26: target 1 insU 3' of 6,insU 3' of 1 (mixed)
RNA 1: B1 RNA 1
RNA 2: B16 RNA 2 with A53U
B27: target 1 insA 3' of 3,insU 3' of 2 (mixed)
RNA 1: B1 RNA 1
RNA 2: B16 RNA 2 with U47G, G48C, C49U, U50A, A52U
B28: target 1 insC 3' of 13,insC 3' of 9 (mixed)
RNA 1: B1 RNA 1
RNA 2: B2 RNA 2 with G40C, G44A, A45C
B29: target 1 insU 3' of 6,insC 3' of 1 (mixed)
RNA 1: B1 RNA 1
RNA 2: B16 RNA 2 with A53C
B30: target 1 insC 3' of 22,insU 3' of 14 (mixed)
RNA 1: B1 RNA 1
RNA 2: B5 RNA 2 with A32C, G33A, C39A, A40U
B31: target 1 C4A,A14C (mixed)
RNA 1: B1 RNA 1
RNA 2: B1 RNA 2 with A38C, A44U, C48A, U50C
B32: target 1 G15U,C21U (mixed)
RNA 1: B1 RNA 1
RNA 2: B1 RNA 2 with C31U, G37U, A44U, U50C
B33: target 1 G12C,A14G (mixed)
RNA 1: B1 RNA 1
RNA 2: B1 RNA 2 with A38G, G40C, A44U, U50C

Target: T1, EsCas13d, nuclease-dead
Assay: crRNA (strand 1, pre-loaded); Mg2+; 40 mM Tris-HCl pH 7.5, 150 mM NaCl, 6 mM MgCl2, 1 mM DTT, 0.1% Tween-20, 0.2 mg/ml BSA; 25 C; 10 min per concentration, then washed
Conditions: tags: His6-TwinStrep-SUMO cleaved; N-terminal SNAP kept (SNAP-Surface 488); label: 3' end held by stalled T7 RNA polymerase

Row | Binder | Kd [nM]
1 | B1 | 21.2 ± 1
2 | B2 | 16.7 ± 1
3 | B3 | 13.8 ± 0.6
4 | B4 | 5.7 ± 0.33
5 | B5 | 89 ± 33
6 | B6 | 41 ± 5
7 | B7 | 8.1 ± 0.4
8 | B8 | 8 ± 0.4
9 | B9 | 11.1 ± 0.5
10 | B10 | 10.6 ± 0.6
11 | B11 | 38 ± 4
12 | B12 | 20.9 ± 1.7
13 | B13 | 12.1 ± 0.5
14 | B14 | 81 ± 22
15 | B15 | 15.8 ± 0.9
16 | B16 | 12.8 ± 0.8
17 | B17 | 15.4 ± 0.5

Row | Binder | Kd [nM]
18 | B18 | 42.2 ± 2.5
19 | B19 | 62 ± 7
20 | B20 | 28.7 ± 3
21 | B21 | 44 ± 6
22 | B22 | 11.4 ± 0.7
23 | B23 | 84 ± 30
24 | B24 | 62 ± 11
25 | B25 | 10.8 ± 0.7
26 | B26 | 14.1 ± 1.4
27 | B27 | 9 ± 0.6
28 | B28 | 17.9 ± 1.1
29 | B29 | 11.7 ± 0.8
30 | B30 | 40 ± 10
31 | B31 | 11.9 ± 1.3
32 | B32 | 6.4 ± 0.5
33 | B33 | 27.5 ± 3.1
